From patent publication WO2019080889A1 (dated 2019) come the findings set out here.

The target in experiment [1] is T1, human CSF-1R protein (huCSF-1R), full length, expressed on CHO-S cells (human, UniProt P07333 20-972).
T1 construct: whole, on cells; Also used here as the target of the monocyte proliferation assays (native receptor on human monocytes); also called CSF-1R/CHO cells; CHO cells highly expressing CSF-1R
Nature of the experiment: flow cytometry on CHO cells highly expressing CSF-1R. A general note: Flow cytometry measures light scatter and fluorescence of single cells or particles in a stream.

Experiment [2] has as its target T2, cynomolgus monkey CSF-1R-His (cynomolgus monkey, UniProt A0A2K5WG90 20-512).
T2 construct: Bought protein; also called cynoCSF-1R-His; cynomolgus CSF-1R protein; not shown: His tag
Nature of the experiment: ELISA on cynomolgus CSF-1R-His. Background: ELISA stands for enzyme-linked immunosorbent assay.

B1: humanized anti-CSF-1R antibody huC11 (antibody, human IgG1, kappa, V domains shown)
VH: EVQLVQSGAEVKKPGASVKVSCKASGYTFSNYYMNWVRQAPGQGLEWMGEMNPNTGDSSYNQKFKGRVTLTVDKSTSTAYMELSSLRSEDTAVYYCARRSPWWFFDVWGQGTMVTVSS
VL: DIVMTQSPDSLAVSLGERATINCKSSQSLLSSGNQKTSLTWYQQKPGQPPKLLIYWASTRESGVPDRFSGSGSGTDFTLTISSLQAEDVAVYYCQNDYTYPFTFGQGTKLEIKR
notes: Full-length chains; also called huC11 (VH-b heavy chain and VL-b light chain)
Take B1: the binding result in experiment [1] was “binds”.

B2: anti-CSF-1R chimeric antibody C11C (antibody, V domains shown)
VH: EVQLQQSGPELVKPGASVKISCKASGYTFSNYYMNWVNQRHGERLEWIGEMNPNNGDSSYNQKFKGKATLTVDKSSSTAYMELRSLTSEDSAVYYCARRSPWWFFDVWGPGTTVIVSS
VL: DIVMTQSPSSLTVTAGEKVTMSCKSSQSLLNSGNQKNSLTWYQQKPGQPPKLLIYWASTRESGVPDRFTGSGSGTDFTLTISSVQTEDLAVYYCQNDYTYPFTFGTGTKLEIK
For the molecule B2, the binding result in experiment [1] was “binds”.

B3: humanized anti-CSF-1R antibody huC19 (antibody, human IgG1, kappa, V domains shown)
VH: QVQLVQSGAEVKKPGASVKVSCKASAITFTDYYMNWVKQAPGQGLEWIGDIYPNTGGTTYNQKFKGRVTLTVDTSISTAYMELSRLRSEDTAVYYCAREKITMEYYYAMDYWGQGTLVTVSS
VL: DIQLTQSPSSLSASVGDRVTITCRASESVSSHDIHLIHWYQQKPGKAPKLLIYAASSLESGVPSRFSGSGSGTDFTLTISSLQPEDFATYFCQQSIEDPPTFGGGTKVEIKR
notes: Full-length chains; also called huC19 (VH-c heavy chain and VL-a light chain)
As to B3, the binding result in experiment [1] was “binds”.

B4: anti-CSF-1R chimeric antibody C27C (antibody, V domains shown)
VH: EVQLQQSGAELVRPGALVKLSCKASGFNIKDYYMHWVKQRPEQGLEWIGRFDPENGDTIYDWKFQDKAIITSDTSSNTAYLHLSSLTSEDTAVYYCARSGDYMFDYWGQGTLVTVSA
VL: ETTVTQSPASLSMAIGEKVTIRCITSTGVDDDFNWYQQRPGEPPKLLISEGNTLRPGVPSRFSSSGYGTDFVFTIENMLSEDVADYFCLQSDHLPFTFGSGTKLEIK
As to B4, in experiment [2], the binding result is listed as “no binding”.

B5: anti-CSF-1R chimeric antibody C19C (antibody, V domains shown)
VH: EVQLQQSGPELVKPGASVKISCTASAITFTDYYMNWVKQSPGKGLEWIGDIYPNNGGTTYNQKFKGKATLTVDKSSTTAYMELRSLTSEDSAVYYCAREKITMEYYYAMDYWGQGTSVTVSS
VL: DIVLTQSPASLAVSLGQRATISCRASESVSSHDIHLIHWYQQKPGQSPKLLIYAASSLESGVPARFSGSGSATDFTLNIHPVEEEDAATYFCQQSIEDPPTFGGGTKLEIK
With B5, the binding result in experiment [1] is “binds”.
